Target: IGF-I receptor (IGF-IR) on P6 cells, which overexpress IGF-IR (UniProt P08069)
Experiment: cell-based or functional assay

Sequence of UniProt P08069 (P08069 31-1367 limits assumed): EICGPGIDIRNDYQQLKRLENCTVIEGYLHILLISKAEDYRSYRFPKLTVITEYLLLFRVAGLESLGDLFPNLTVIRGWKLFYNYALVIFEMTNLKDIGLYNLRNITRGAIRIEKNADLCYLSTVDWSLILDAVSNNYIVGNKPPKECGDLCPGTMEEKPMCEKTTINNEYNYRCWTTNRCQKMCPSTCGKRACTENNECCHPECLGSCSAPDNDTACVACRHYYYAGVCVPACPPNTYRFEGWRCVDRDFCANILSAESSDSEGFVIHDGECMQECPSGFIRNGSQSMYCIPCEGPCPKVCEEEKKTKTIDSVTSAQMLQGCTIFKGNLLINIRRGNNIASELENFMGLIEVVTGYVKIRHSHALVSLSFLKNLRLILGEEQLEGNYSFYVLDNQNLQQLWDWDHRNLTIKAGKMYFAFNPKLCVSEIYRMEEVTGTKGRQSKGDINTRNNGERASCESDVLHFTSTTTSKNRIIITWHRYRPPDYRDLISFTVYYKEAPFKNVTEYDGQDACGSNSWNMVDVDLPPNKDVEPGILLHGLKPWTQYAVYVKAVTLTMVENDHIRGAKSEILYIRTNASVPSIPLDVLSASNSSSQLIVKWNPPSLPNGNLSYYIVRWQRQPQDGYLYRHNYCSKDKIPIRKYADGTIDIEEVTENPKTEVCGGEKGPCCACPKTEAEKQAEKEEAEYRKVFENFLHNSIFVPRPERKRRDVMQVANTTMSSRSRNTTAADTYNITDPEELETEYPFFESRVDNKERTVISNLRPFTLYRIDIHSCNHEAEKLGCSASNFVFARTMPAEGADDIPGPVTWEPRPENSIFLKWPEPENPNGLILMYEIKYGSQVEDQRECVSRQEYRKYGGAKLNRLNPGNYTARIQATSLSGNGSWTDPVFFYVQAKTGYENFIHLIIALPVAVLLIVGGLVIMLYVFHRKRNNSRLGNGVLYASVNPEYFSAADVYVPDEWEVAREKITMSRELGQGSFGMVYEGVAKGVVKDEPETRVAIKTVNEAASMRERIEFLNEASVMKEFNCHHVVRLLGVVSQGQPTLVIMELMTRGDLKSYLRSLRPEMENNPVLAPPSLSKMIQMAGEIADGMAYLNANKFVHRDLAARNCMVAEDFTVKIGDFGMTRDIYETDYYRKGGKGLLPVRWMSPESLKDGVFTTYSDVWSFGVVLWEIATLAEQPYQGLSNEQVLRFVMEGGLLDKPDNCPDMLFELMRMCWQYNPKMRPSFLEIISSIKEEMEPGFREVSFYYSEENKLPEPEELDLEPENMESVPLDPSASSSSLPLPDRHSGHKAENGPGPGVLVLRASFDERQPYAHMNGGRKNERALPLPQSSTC

Substance | KIRA (rel to IStop) | KIRA Raw (IGF-IR phosphorylation, KIRA assay on P6 cells, conditioned medium) | KIRA/Total IGF | also measured
mature IGF-I (murine), produced from the IGF-ISt construct (from UniProt P05017 49-118) (ligand) | 1 | 39 | 47.9 | 
gly-pro-IGF-I (glycosylated pro-IGF-IA) (from UniProt P05017 1-153) (ligand) |  |  |  | calculated IGF-IR activation (KIRA, FIG. 5B), potency against mature IGF-I (fold less potent): 2; calculated relative IGF-IR activation by gly-pro-IGF-I (GP), mature IGF-I set to 1.0, from the IA equation: 0.3; calculated relative IGF-IR activation by gly-pro-IGF-I (GP), mature IGF-I set to 1.0, from the KRR equation: 0.47; calculated relative IGF-IR activation by gly-pro-IGF-I (GP), mature IGF-I set to 1.0, mean of the IA and KRR equations: 0.38
IGF-INN (IGF-IA with N92D and N100D, glycosylation blocked) (from UniProt P05017 49-153) (ligand) | 0.88 | 65.8 | 42.4 | 
pro-IGF-I (non-glycosylated pro-IGF-IA: mature IGF-I plus EA-peptide) (from UniProt P05017 1-153) (ligand) |  |  |  | calculated relative IGF-IR activation by pro-IGF-I (P), mature IGF-I set to 1.0, from the NN equation: 0.84; calculated relative IGF-IR activation by pro-IGF-I (P), mature IGF-I set to 1.0, mean of the NN and KRRNN equations: 0.89

Now from value to substance, other results behind:

KIRA (rel to IStop) | KIRA Raw (IGF-IR phosphorylation, KIRA assay on P6 cells, conditioned medium) | KIRA/Total IGF | Substance | also measured
0.59 | 45.8 | 28.2 | IGF-IA (murine class I IGF-IA, wild-type construct) (from UniProt P05017 49-153) (ligand) | IGF-IR phosphorylation per IGF molecule against mature IGF-I (KIRA, 4 experiments): 30 % less
0.93 | 42.6 | 44.4 | IGF-IKRRNN (IGF-IA with K68G, R71A, R77A, N92D, N100D; produces only pro-IGF-I) (from UniProt P05017 49-153) (ligand) | IGF-IR response in Kinase Receptor Activation (KIRA) assays, against mature IGF-I: 30 % more
0.61 | 23.6 | 29.3 | IGF-IKRR (IGF-IA with K68G, R71A, R77A, cleavage blocked) (from UniProt P05017 49-153) (ligand) | IGF-IR phosphorylation per IGF molecule against mature IGF-I (KIRA, 4 experiments): 30 % less
